Laboratory results taken from IntAct's records for PubMed 31712417.

Biological target: if4e_human EIF4E (UniProt P06730)
Sequence (P06730 whole entry): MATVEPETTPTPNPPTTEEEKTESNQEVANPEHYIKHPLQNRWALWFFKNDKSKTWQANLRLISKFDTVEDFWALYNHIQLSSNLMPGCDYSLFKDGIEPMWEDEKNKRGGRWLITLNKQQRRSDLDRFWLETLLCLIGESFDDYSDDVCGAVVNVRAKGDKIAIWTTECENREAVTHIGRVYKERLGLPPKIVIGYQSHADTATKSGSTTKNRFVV

Substance	effect of a mutation on the interaction
Genome polyprotein (Potato virus Y (strain N)), P18247 L1961G	decreasing interaction
Genome polyprotein (Potato virus Y (strain N)), P18247 D1935K	with no effect
Genome polyprotein (Potato virus Y (strain N)), P18247 E1941K;E1945K	with no effect
Genome polyprotein (Potato virus Y (strain N)), P18247 M1958A;Q1959A	decreasing interaction
Genome polyprotein (Potato virus Y (strain N)), P18247 D1954A;D1955A;E1957A	decreasing interaction
Genome polyprotein (Potato virus Y (strain N)), P18247 V1951G;E1952K	decreasing interaction
Genome polyprotein (Potato virus Y (strain N)), P18247 E1929K;E1930K	with no effect
Genome polyprotein (Potato virus Y (strain N)), P18247 D1954A;D1955A;Q1959A	decreasing interaction
